In this experiment the target is receptor for advanced glycated end products (RAGE) (human) (UniProt Q15109). As to the kind of experiment: cell-based or functional assay. The settings on record: scale: relative to saline-treated controls.
Chain of receptor for advanced glycated end products (RAGE) (human) (Q15109 23-404): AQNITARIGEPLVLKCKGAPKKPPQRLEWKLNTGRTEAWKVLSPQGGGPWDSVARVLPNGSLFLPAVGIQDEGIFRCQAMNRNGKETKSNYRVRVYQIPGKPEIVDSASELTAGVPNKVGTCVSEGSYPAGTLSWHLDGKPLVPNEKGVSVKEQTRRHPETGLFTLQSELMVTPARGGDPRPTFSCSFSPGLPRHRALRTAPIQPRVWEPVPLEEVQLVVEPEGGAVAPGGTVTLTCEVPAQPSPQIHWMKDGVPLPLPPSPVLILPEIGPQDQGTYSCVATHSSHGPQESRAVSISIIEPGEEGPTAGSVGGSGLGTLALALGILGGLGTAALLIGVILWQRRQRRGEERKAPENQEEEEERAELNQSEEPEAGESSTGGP

Substance glycated hemoglobin (ligand) yielded a Phospbo-PKCa/bII (T638/641) (ELISA, 293 kidney cells, 4 hr) of 1.52; a Phospho-ATF2 (T71) (ELISA, 293 kidney cells, 4 hr) of 1.61; a Phospho-Akt (S473) (ELISA, 293 kidney cells, 4 hr) of 1.92; a Phospho-Akt (T308) (ELISA, 293 kidney cells, 4 hr) of 1.06. In addition, the Phospho-ERK (T202/Y204) (ELISA, 293 kidney cells, 4 hr) was determined as 1; the Phospho-IRS1 (S307) (ELISA, 293 kidney cells, 4 hr) was 1.56; the Phospho-IRS2 (S731) (ELISA, 293 kidney cells, 4 hr) was found to be 1.03; the Phospho-JNK (T183/Y185) (ELISA, 293 kidney cells, 4 hr) was determined as 1.38. The substance further gave a Phospho-PKCmu (S916) (ELISA, 293 kidney cells, 4 hr) of 0.95; a Total Akt1 (ELISA, 293 kidney cells, 4 hr) of 1.27; a Total Akt2 (ELISA, 293 kidney cells, 4 hr) of 0.81; a Total IRS-1 (ELISA, 293 kidney cells, 4 hr) of 1.07. In addition, the Total IRS-2 (ELISA, 293 kidney cells, 4 hr) was determined as 1.47 and the Total collagen-IV (ELISA, 293 kidney cells, 4 hr) was determined as 1.34.

Source of the values: patent publication US20090053203A1.
